Experimental findings from patent US20070253967A1, “Agent for the treatment and/or prophylaxis of microcirculatory disorders” (priority 1997, published 2007) are described below.

This experiment deals with T1, fibrinogen (Homo sapiens, UniProt P02675+P02679).
T1 construct: then loaded with heparinized plasma (40 ml); from tissue; host or cells: heparinized plasma
Description: Specifity of the coupled Sepharose by SDS gel electrophoresis. It counts as binding. The conditions noted are these: statement in the description. How it is done:
The pentapeptide Gly-Pro-Arg-Pro-Lys was synthetized as trifluoracetate and coupled to cyanobromide-active Sepharose CL-4B. The specifity of the coupled Sepharose was tested by means of SDS gel electrophoresis.

T1 sequence (P02671 20-629 partner limits assumed): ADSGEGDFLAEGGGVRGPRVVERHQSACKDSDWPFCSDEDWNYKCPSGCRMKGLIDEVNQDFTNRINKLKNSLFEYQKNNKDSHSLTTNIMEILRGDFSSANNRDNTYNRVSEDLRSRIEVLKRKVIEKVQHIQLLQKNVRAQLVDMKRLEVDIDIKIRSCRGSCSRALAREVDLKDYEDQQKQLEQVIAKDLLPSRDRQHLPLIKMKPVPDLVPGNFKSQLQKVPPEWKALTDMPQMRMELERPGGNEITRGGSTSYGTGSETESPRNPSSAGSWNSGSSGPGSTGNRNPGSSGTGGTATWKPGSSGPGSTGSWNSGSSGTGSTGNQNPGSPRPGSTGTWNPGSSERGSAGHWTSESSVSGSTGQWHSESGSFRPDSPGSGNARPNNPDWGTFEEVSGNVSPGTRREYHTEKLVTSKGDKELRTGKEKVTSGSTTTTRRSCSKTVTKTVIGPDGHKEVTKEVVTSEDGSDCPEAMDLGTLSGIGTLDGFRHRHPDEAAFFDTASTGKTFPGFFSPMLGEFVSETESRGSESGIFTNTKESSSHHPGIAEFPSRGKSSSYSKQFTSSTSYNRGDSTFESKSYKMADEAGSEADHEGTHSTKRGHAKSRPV
T1 sequence (P02675 31-491): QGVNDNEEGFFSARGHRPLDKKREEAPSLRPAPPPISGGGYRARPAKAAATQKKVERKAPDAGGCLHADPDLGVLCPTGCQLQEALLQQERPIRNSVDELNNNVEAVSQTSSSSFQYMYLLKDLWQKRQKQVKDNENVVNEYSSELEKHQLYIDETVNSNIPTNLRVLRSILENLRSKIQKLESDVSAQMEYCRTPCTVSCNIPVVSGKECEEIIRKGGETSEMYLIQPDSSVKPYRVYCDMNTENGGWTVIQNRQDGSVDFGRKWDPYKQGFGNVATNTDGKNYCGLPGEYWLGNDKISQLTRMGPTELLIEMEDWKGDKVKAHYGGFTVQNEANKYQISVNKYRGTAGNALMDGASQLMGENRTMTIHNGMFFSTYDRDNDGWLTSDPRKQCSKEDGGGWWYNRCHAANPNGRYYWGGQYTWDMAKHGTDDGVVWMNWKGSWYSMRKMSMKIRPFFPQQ
T1 sequence (P02679 27-453): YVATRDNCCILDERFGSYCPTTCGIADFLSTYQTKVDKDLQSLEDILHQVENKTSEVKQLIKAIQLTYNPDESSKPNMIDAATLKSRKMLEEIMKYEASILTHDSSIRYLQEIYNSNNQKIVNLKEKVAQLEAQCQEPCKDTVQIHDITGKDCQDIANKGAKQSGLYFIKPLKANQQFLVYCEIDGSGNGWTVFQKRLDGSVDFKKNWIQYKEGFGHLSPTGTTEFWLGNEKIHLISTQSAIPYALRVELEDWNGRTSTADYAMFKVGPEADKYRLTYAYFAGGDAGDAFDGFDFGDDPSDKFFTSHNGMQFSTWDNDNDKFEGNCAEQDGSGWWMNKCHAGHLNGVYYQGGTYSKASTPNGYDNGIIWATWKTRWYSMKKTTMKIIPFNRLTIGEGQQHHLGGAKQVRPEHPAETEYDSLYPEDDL

Regarding “Gly-Pro-Arg-Pro-Lys (GPRPK; printed: Gly-Pro-Arg-Pro-Lys) [pentapeptide ligand for fibrinogen and/or fibrin]”, the “specifity for fibrinogen and/or fibrin” value was “very high specifity”.
